Measured values taken from patent publication US9074002B2, “PTP1B inhibitors” (Cold Spring Harbor Laboratory, priority 2009, dated 2015).

T1: PTP1B-OX (Homo sapiens, UniProt P18031)
T1 construct: made in house; host or cells: E. coli BL21 (pET19b)
T1 sequence (P18031 3-277): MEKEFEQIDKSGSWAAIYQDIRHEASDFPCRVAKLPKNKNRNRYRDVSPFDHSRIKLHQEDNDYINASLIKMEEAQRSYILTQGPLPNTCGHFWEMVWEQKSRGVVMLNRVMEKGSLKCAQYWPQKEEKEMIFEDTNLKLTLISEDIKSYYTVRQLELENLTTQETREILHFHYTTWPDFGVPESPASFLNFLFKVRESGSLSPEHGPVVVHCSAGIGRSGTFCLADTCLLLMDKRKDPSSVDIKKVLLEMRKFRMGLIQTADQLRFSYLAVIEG

T2: PTP1B under reducing condition (Homo sapiens, UniProt P18031)
T2 construct: made in house; host or cells: E. coli BL21 (pET19b)
T2 sequence (P18031 3-277 limits assumed): T1 sequence (P18031 3-277)

B1: scFv45: conformation-sensor scFv binding PTP1B-OX, SEQ ID NO: 26 and 78; expressed as intrabody (protein)
scFv: MKKTAIAIAVALAGFATVAQAALTQPSSVSANPGGTVKITCSGSSSAYGYGWYQQKSPGSAPVTVIYNNNKRPSNIPSRFSGSKSGSTGTLTITGVQAEDEAVYFCGSEDSSTDAIFGAGTTLTVLGQSSRSSTVTLDESGGGLQAPGGALSLVCKASGFTFSSYDMGWIRQAPGKGLEYVAGITDNGRYASYGSAVDGRATISRDNGQSSVRLQLNNLRAEDTGTYYCARDDGSGWTGNSIDAWGHGTEVIVSSTSGQAGQHHHHHHGAYPYDVPDYAS
B2: scFv57: scFv binding PTP1B-OX, SEQ ID NO: 27 and 90 (protein)
scFv: MKKTAIAIAVALAGFATVAQAALTQPSSVSANPGAFNKITCSGSSSAYGYGWNQQKSPGSAPVTVIYNNNKRPSNIPSRFSGSKSGSTGTLTITGDQDEDEDFYFCGSEYSSTDAIFGAGTTLTVLGQSSRSSTVTLDESGGGLQAPGGALSLVCKASGFTFSSYDMGWIPQAPGKGLEYVAGITDNGIYASYGSAVDGRATISRDNRQSSVKLQLNNLKADDTGTYYCARDDGSGWTGNSIDAWGHGTEVIVSSTSGQAGQHHHHHHGAYPYDVPDYAS

What was measured:
PTP1B-OX [1] = molecular target: T1, PTP1B-OX; test: Inhibition of reactivation of reversibly oxidized PTP1B by reducing agent (RCML phosphatase assay); format: biochemical; settings: PTP1B oxidized with H2O2, buffer exchange, TCEP added; FIG. 2
Procedure: Applicant's hypothesis was that scFvs that are able to bind to and stabilize the oxidized conformation of PTP1B in solution would inhibit reactivation by reducing agent, but have no direct inhibitory effect on phosphatase activity in assays in vitro. Activity was measured using ^32P-labeled pTyr-Reduced Carboxamidomethylated and Maleylated Lysozyme as substrate. Applicant established conditions in which wild type PTP1B could be reversibly oxidized in vitro. PTP1B was inactivated following addition of H2O2. […] Applicant validated this approach further, by testing the effects of expressing one of the scFvs (scFv45) as a single chain antibody fragment “intrabody” to PTP1B, using 293T cells as the expression system. This intrabody was expressed transiently and then tested for effects on insulin signaling, focusing initially on the tyrosine phosphorylation status of the beta-subunit of the insulin receptor and insulin receptor substrate (IRS-1).
Reduced carboxamidomethylated and maleylated lysozyme (RCML) was labeled with ^32P using recombinant GST-FER kinase to stoichiometries up to 0.8 (mol ^32P incorporated/mol of protein). This ^32P-Labeled phospho-tyrosyl RCML was used as the substrate in the in-solution phosphatase assay for screening the conformation sensor scFvs. Recombinant PTP1B was reversibly oxidized and transiently inactivated with H2O2 (5× molar excess of the protein). […] Purified bacterially expressed scFvs (100× molar excess of PTP1B) were incubated with PTP after H2O2 treatment and its removal and the effect of individual scFv on stabilizing the reversibly oxidized conformation was assessed by the phosphatase assay under reducing condition.
In a different experiment, conditions were established in which wild type PTP1B could be reversibly oxidized in vitro. […] Addition of the reducing agent alone had no substantial effect on PTP1B activity (FIGS. 1 and 2, “PTP1B”).

[2] = system: tyrosine phosphorylation of insulin receptor β (IRβ) and insulin receptor substrate-1 (IRS-1) in 293T cells; test: Insulin signaling in 293T cells expressing intrabody: tyrosine phosphorylation of IRβ and IRS-1; format: cell-based
Text: In order to validate this approach further, Applicant tested the effects of expressing one of these (scFv45) as a single chain antibody fragment “intrabody” to PTP1B, using 293T cells as a convenient expression system. This intrabody was expressed transiently and then tested for effects on insulin signaling, focusing initially on the tyrosine phosphorylation status of the β-subunit of the insulin receptor and IRS-1 (FIG. 2). Initial indications are that for both substrates expression of the intrabody had no impact on the basal level of tyrosyl phosphorylation, but it enhanced and extended the time course of insulin-induced phosphorylation, consistent with our proposed mechanism of action.
Intrabody scFv45 was transfected in 293T cells, serum starved and insulin stimulated to investigate the physiological relevance of this intrabody expression in mammalian cells in the context of PTP1B mediated regulation of insulin signaling (or insulin signaling mediated redox regulation of PTP1B activity). Insulin stimulated 293T cells with or without the intrabody were harvested in RIPA buffer (25 mM HEPES, pH 7.5, 150 mM NaCl, 0.25% Deoxychloate, 10% Glycerol, 25 mM NaF, 10 mM MgCl2, 1 mM EDTA, 1% TritonX-100, 0.5 mM PMSF, 10 mM Benzamidine, protease inhibitor cocktail, 1 mM sodium vanadate) and the cell lysates were examined for total tyrosine phosphosphorylation pattern using phospho-tyrosine specific antibodies (FIGS. 3 and 4).

[3] = molecular target: T2, PTP1B under reducing condition; test: In vitro binding assay, purified recombinant PTP1B (37 kDa) and purified scFv, Ni-NTA pull down, reducing condition; settings: with 2 mM TCEP; FIG. 9
Procedure: (§1) They established conditions in which PTP1B is reversibly oxidized by H2O2 in solution (FIG. 8). An artificial protein substrate RCML, in which tyrosine was phosphorylated with ^32P using recombinant GST-FER kinase was used in this assay to measure the phosphatase activity. Recombinant PTP (37 kDa) was incubated with increasing concentration (50 μM to 100 mM) of H2O2. A quick buffer exchange was done to remove the H2O2 and reducing agent (TCEP) was added to reactivate the enzyme.
(§2) In the in vitro binding assay, purified PTP was reversibly oxidized with […] followed by a quick buffer exchange to remove H2O2 (FIG. 8). Purified scFv was incubated in molar excess with PTP1B-OX or with PTP under reducing condition (with 2 mM TCEP) in binding buffer (20 mM HEPES, pH 7.4, 300 mM NaCl, 0.05% BSA, 0.05% Tween-20 and 10 mM imidazole) for 2 hours at 4° C. Ni-NTA agarose was added and incubated for one hour at 4° C. Protein complex bound to Ni-NTA agarose beads was pulled down and washed (three times, 5 minutes each, at 4° C.) with binding buffer containing 20 mM imidazole to reduce non-specific binding to the beads. The protein complex was eluted from the Ni-NTA agarose beads with 500 mM imidazole (in binding buffer, pH 7.4) for 15 minutes at 4° C. with gentle shaking. The complex was separated by SDS-PAGE and PTP1B was detected with anti-PTP1B antibody (FG6) and scFv was detected with anti-HA antibody [anti-HA (3F10)-HRP, Roche] by immunoblotting. Eight different scFvs (scFvs 20, 21, 24, 28, 45, 48, 57, and 105), expressed and purified from bacterial cultures were tested by this in vitro binding experiment.

PTP1B-OX [4] = molecular target: T1, PTP1B-OX; test: In vitro binding assay, purified recombinant PTP1B (37 kDa) and purified scFv, Ni-NTA pull down; settings: purified proteins, scFv in molar excess, 2 hours at 4° C.; FIG. 9
Procedure: as §1, §2

| Molecule | inhibition of reactivation of PTP1B-OX by reducing agent (restoration of PTP1B activity after reversible oxidation) (PTP1B-OX [1]) | basal level of tyrosyl phosphorylation of insulin receptor β-subunit and IRS-1 ([2]; 293T cells expressing intrabody, no insulin) | tyrosine phosphorylation of insulin receptor β (IRβ) ([2]; 293T cells overexpressing intrabody, insulin stimulated, FIG. 3) | tyrosine phosphorylation of insulin receptor substrate-1 (IRS-1) ([2]; 293T cells overexpressing intrabody, insulin stimulated, FIG. 4) | binding to PTP1B under reducing condition in vitro [3] | binding to PTP1B-OX in vitro (PTP1B-OX [4]) |
| --- | --- | --- | --- | --- | --- | --- |
| B1 | substantial inhibition of the restoration of PTP1B activity | no impact | increased and prolonged tyrosine phosphorylation | increased and prolonged tyrosine phosphorylation | not to PTP under reducing condition | specific binding to PTP1B-OX |
| B2 | substantial inhibition of the restoration of PTP1B activity |  |  |  | not to PTP under reducing condition | specific binding to PTP1B-OX |
